From the supplement of paper PMC9233669
This sample holds only a part of the variants without activity.

Key:
[1] = tested on: biotinyl-Phe-oxazolone; test: self-aminoacylation, catalytic enhancement (BFO) (fold over background); higher = more active; k-Seq, kA / k0A0; sequences stand for … in GGGAAUGGAUCCACAUCUACGAAUUC…UUCACUGCAGACUUGACGAAGCUG
Method in brief: (§1)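 Catalytic enhancement equals the median kA over the uncatalyzed rate, the latter read from the low-activity peak of a bimodal Gaussian fit. Values of kA came from fitting each sequence's fraction reacted to a pseudo-first-order model, with 1000 bootstraps. Reacted RNA was captured with streptavidin and quantified by triplicate qPCR and Illumina sequencing after 90 minutes at room temperature with 2–1250 μM biotinyl-aminoacyl-oxazolone and 0.43 μM mutagenized RNA pools bearing a 21-nt variable region.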

[2] = tested on: biotinyl-Ile-oxazolone; test: self-aminoacylation, catalytic enhancement (BIO) (fold over background); higher = more active; k-Seq, kA / k0A0; sequences stand for … in GGGAAUGGAUCCACAUCUACGAAUUC…UUCACUGCAGACUUGACGAAGCUG
Method in brief: as §1

[3] = tested on: biotinyl-Met-oxazolone; test: self-aminoacylation, catalytic enhancement (BMO) (fold over background); higher = more active; k-Seq, kA / k0A0; sequences stand for … in GGGAAUGGAUCCACAUCUACGAAUUC…UUCACUGCAGACUUGACGAAGCUG
Method in brief: as §1

[4] = tested on: biotinyl-Val-oxazolone; test: self-aminoacylation, catalytic enhancement (BVO) (fold over background); higher = more active; k-Seq, kA / k0A0; sequences stand for … in GGGAAUGGAUCCACAUCUACGAAUUC…UUCACUGCAGACUUGACGAAGCUG
Method in brief: as §1

[5] = tested on: biotinyl-Leu-oxazolone; test: self-aminoacylation, catalytic enhancement (BLO) (fold over background); higher = more active; k-Seq, kA / k0A0; sequences stand for … in GGGAAUGGAUCCACAUCUACGAAUUC…UUCACUGCAGACUUGACGAAGCUG
Method in brief: as §1

[6] = tested on: biotinyl-Trp-oxazolone; test: self-aminoacylation, catalytic enhancement (BWO) (fold over background); higher = more active; k-Seq, kA / k0A0; sequences stand for … in GGGAAUGGAUCCACAUCUACGAAUUC…UUCACUGCAGACUUGACGAAGCUG
Method in brief: as §1

Row | Sequence | self-aminoacylation [1] | self-aminoacylation [2] | self-aminoacylation [3] | self-aminoacylation [4] | self-aminoacylation [5] | self-aminoacylation [6]
1 | AUUCAACUAGGUCAUAGGGUG [Fam2.2 aminoacylation ribozyme variant] | 9.13 | 1.49 | 2 | 1.28 | 2.58 | 1.47
2 | AUUCACCUAAGUCACCGGGUG [Fam2.2 aminoacylation ribozyme variant] | 53.8 | 4.72 | 7.03 | 4.88 | 8.36 | 5.67
3 | AUUACCCUCGUCAUCGUGUGA [Fam2.1 aminoacylation ribozyme variant] | 1.22 | 1.15 | 1.47 | 1.22 | 1.47 | 1.65
4 | CUACUUCCAACAAUGGGUCUG [Fam1A.1 aminoacylation ribozyme variant] | 0.635 | 0.951 | 0.932 | 0.835 | 0.795 | 0.789
5 | CUAAUUCAAACAGUCGGUCUG [Fam1A.1 aminoacylation ribozyme variant] | 0.62 | 0.839 | 0.731 | 0.853 | 0.915 | 0.523
6 | CUAGUUCAAAAAAUCGGUCUG [Fam1A.1 aminoacylation ribozyme variant] | 2.72 | 0.934 | 0.842 | 0.752 | 0.838 | 2.08
7 | AUUACCCUUGUUAUCGAGUGA [Fam2.1 aminoacylation ribozyme variant] | 116 | 7.09 | 15.9 | 6.96 | 14.7 | 19.6
8 | AUUACCCUUGUCAACGAGUGA [Fam2.1 aminoacylation ribozyme variant] | 21.7 | 3.27 | 5.49 | 3.44 | 6.71 | 7.03
9 | AUUAGCCUGAUCAUCGAGUGA [Fam2.1 aminoacylation ribozyme variant] | 46.7 | 4.82 | 10.4 | 4.4 | 10.6 | 11
10 | AUUCAUCUGGGUCAUCGGGUG [Fam2.2 aminoacylation ribozyme variant] | 53.2 | 5.22 | 7.57 | 4.92 | 10.3 | 7.66
11 | AAGUAUGCUAGUAGUCGCAAG [Fam3.1 aminoacylation ribozyme variant] | 2.22 | 1.26 | 1.22 | 1.35 | 0.756 | 1.12
12 | AUUCACCUACGUGAUCGGGUG [Fam2.2 aminoacylation ribozyme variant] | 20.2 | 2.19 | 2.81 | 2 | 3.64 | 3.44
13 | CUUCACCUAGGUCAUCGGGUG [Fam2.2 aminoacylation ribozyme variant] | 34.6 | 4.63 | 7.51 | 5.18 | 9 | 6.65
14 | AUGACCCCGGUCAUCGAGUGA [Fam2.1 aminoacylation ribozyme variant] | 39.9 | 3.51 | 6.75 | 3.3 | 8.55 | 6.78
15 | CUACUCCAAACAAUCGGUCUG [Fam1A.1 aminoacylation ribozyme variant] | 3.09 | 0.801 | 0.786 | 0.825 | 0.731 | 1.95
16 | CUGACCCUGGUCAUCGAGUGA [Fam2.1 aminoacylation ribozyme variant] | 7.35 | 3.64 | 7.22 | 4.5 | 7.94 | 8.61
17 | GUUACGCUGGUCAUCGAGUGA [Fam2.1 aminoacylation ribozyme variant] | 59.2 | 5.57 | 7.2 | 4.86 | 8.34 | 10.6
18 | AAGUUUGCUAAAAAUCGCAAG [Fam3.1 aminoacylation ribozyme variant] | 0.949 | 1.09 | 0.925 | 0.721 | 0.891 | 0.986
19 | CUACUUCAAACAUUCGGUCAG [Fam1A.1 aminoacylation ribozyme variant] | 0.674 | 0.901 | 0.886 | 0.992 | 0.861 | 0.688
20 | CUACUUCAACCAAUAGGUCUG [Fam1A.1 aminoacylation ribozyme variant] | 1.05 | 0.947 | 0.703 | 0.777 | 0.743 | 0.753
21 | GUUAACCUGGUCAUCGAGUGA [Fam2.1 aminoacylation ribozyme variant] | 24.2 | 4.69 | 6.75 | 3.95 | 6.73 | 8.69
22 | AGUACCCUGGUCAACGAGUGA [Fam2.1 aminoacylation ribozyme variant] | 21.6 | 2.91 | 5.55 | 2.63 | 4.71 | 5.71
23 | AUUACCCUAGUCAUUGAGUGA [Fam2.1 aminoacylation ribozyme variant] | 25.9 | 3.69 | 6.69 | 3.86 | 6.93 | 9.31
24 | AGUACCCUAGUCAUCGAGUGA [Fam2.1 aminoacylation ribozyme variant] | 24.6 | 3.2 | 4.86 | 3.13 | 4.92 | 6.29
25 | CUACUUCAAAGAACCGGUCUG [Fam1A.1 aminoacylation ribozyme variant] | 0.687 | 0.994 | 0.715 | 0.815 | 0.847 | 0.734
26 | AUUACCCUAGUCAUCGAGCGA [Fam2.1 aminoacylation ribozyme variant] | 0.894 | 1.3 | 1.38 | 1.32 | 1.2 | 1.21

Row | Sequence | self-aminoacylation [1] | self-aminoacylation [2] | self-aminoacylation [3] | self-aminoacylation [4] | self-aminoacylation [5] | self-aminoacylation [6]
27 | AUUACCCCGUUCAUCGAGUGA [Fam2.1 aminoacylation ribozyme variant] | 7.48 | 2.28 | 4.47 | 2.77 | 3.55 | 5.03
28 | CCACAAUUCAAGCAAUCGAUC [Fam1B.1 aminoacylation ribozyme variant] | 0.898 | 0.742 | 0.699 | 0.888 | 0.685 | 0.675
29 | AUUACCCUGGUUAUCGCGUGA [Fam2.1 aminoacylation ribozyme variant] | 93.6 | 4.99 | 12.4 | 6.04 | 11.6 | 13.5
30 | AUUACCCUGGUGAUUGAGUGA [Fam2.1 aminoacylation ribozyme variant] | 57.1 | 3.55 | 7.66 | 3.55 | 7.64 | 9.23
31 | AUUCACCUACGUCAUCGCGUG [Fam2.2 aminoacylation ribozyme variant] | 83.5 | 5.7 | 10.3 | 5.93 | 14.1 | 9.63
32 | AUUACGCUGGUCAUCGAGUGC [Fam2.1 aminoacylation ribozyme variant] | 1.4 | 1.02 | 1.44 | 1.33 | 1.31 | 1.24
33 | AAGUUCGCUAAUACUCGCAAG [Fam3.1 aminoacylation ribozyme variant] | 0.849 | 1.53 | 1.47 | 1.12 | 1.2 | 0.7
34 | AUUCACCUAGGCCAUUGGGUG [Fam2.2 aminoacylation ribozyme variant] | 34.9 | 3.11 | 4.09 | 2.85 | 5.31 | 3.71
35 | AAGUAUGCUAAUAGUCCCAAG [Fam3.1 aminoacylation ribozyme variant] | 3.66 | 1.14 | 1.18 | 1.16 | 1.02 | 1.54
36 | GUUACCCUGGUGAUCGAGUGA [Fam2.1 aminoacylation ribozyme variant] | 34.8 | 3.37 | 6.75 | 3.33 | 7.43 | 8.86
37 | CCACACUUCAAGAAACCGGUC [Fam1B.1 aminoacylation ribozyme variant] | 0.875 | 0.998 | 0.798 | 0.824 | 1.17 | 0.931
38 | AAUUUUGCUAAUAGGCGCAAG [Fam3.1 aminoacylation ribozyme variant] | 1.5 | 1.57 | 1.43 | 1.28 | 1.12 | 1.71
39 | AAUUUUGCUAAUAGUCGCAAC [Fam3.1 aminoacylation ribozyme variant] | 2.23 | 1.64 | 1.41 | 1.8 | 1.44 | 1.95
40 | GUUAACCUAGGUCAUCGGGUG [Fam2.2 aminoacylation ribozyme variant] | 77.3 | 7.79 | 11.9 | 6.73 | 16.1 | 12.7
41 | AUUACAUUGGUCAUCGAGUGA [Fam2.1 aminoacylation ribozyme variant] | 22.8 | 3.03 | 5.35 | 2.95 | 5.8 | 6.85
42 | AGUCACCUAGGUCAUCGGGUA [Fam2.2 aminoacylation ribozyme variant] | 60 | 6.85 | 11.6 | 6.5 | 12.7 | 9.54
43 | AUUUACCAAGGUCAUCGGGUG [Fam2.2 aminoacylation ribozyme variant] | 77.2 | 4.61 | 7.36 | 4.6 | 9.69 | 7.11
44 | GUUCACCUAAGUCAUCGGGUG [Fam2.2 aminoacylation ribozyme variant] | 51.4 | 5.38 | 7.53 | 5.4 | 9.78 | 7.87
45 | CCACACUCCUAGCAAUCGGUC [Fam1B.1 aminoacylation ribozyme variant] | 0.91 | 0.943 | 0.631 | 1.04 | 0.746 | 0.519
46 | CCACGCUUCAAGCAAUGGGUC [Fam1B.1 aminoacylation ribozyme variant] | 0.735 | 0.646 | 0.537 | 0.656 | 0.627 | 0.419
47 | UUUACCCUGGUCAUCGAGAGA [Fam2.1 aminoacylation ribozyme variant] | 2.19 | 1.28 | 1.61 | 1.3 | 1.32 | 1.86
48 | CCACAUCAAACAAUCGGUCUG [Fam1A.1 aminoacylation ribozyme variant] | 1.46 | 1.13 | 1.04 | 1.07 | 1.05 | 1.98
49 | AUUCACCUAAGUCAUCGGGAG [Fam2.2 aminoacylation ribozyme variant] | 0.578 | 1.07 | 1.2 | 1.49 | 1.81 | 1.14
50 | AUUACCCUGGUCUUCGAAUGA [Fam2.1 aminoacylation ribozyme variant] | 0.408 | 0.649 | 0.746 | 0.728 | 0.694 | 0.642
51 | AUUAACCUAGGUCAUCGGGCG [Fam2.2 aminoacylation ribozyme variant] | 4.51 | 2.55 | 3.99 | 2.63 | 5.44 | 2.17
